Reference: paper PMC9372576

What was measured:
[1] = target: GvpA fused to NGFP or CGFP (Halobacterium salinarum) (UniProt P08958); assay: split reporter (BiFC, NanoBiT); split-GFP (NGFP and CGFP of salt-stable mGFP2) in Hfx. volcanii transformants, 24 h 37 °C then 24 h 30 °C; relative fluorescence (rf) against the wild type; the highest of eight tag combinations is given
[2] = target: GvpA fused to NGFP or CGFP (Halobacterium salinarum) (UniProt P08958); assay: split reporter (BiFC, NanoBiT); split-GFP of A/A with untagged GvpC, GvpN and GvpO co-produced under the P2 promoter (A/A + CNO)

GvpA fused to NGFP or CGFP (Halobacterium salinarum), sequence (P08958 whole entry, the tested form may be a part): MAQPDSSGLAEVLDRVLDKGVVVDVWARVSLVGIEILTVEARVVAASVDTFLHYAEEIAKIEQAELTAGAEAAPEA

| relative fluorescence (rf) [1] | relative fluorescence (rf) [2] | Substance |
| --- | --- | --- |
| < 2 LAU/mm^2 | – | GvpC fused to NGFP or CGFP (from UniProt P24574 1-382) (natural protein) |
| < 2 LAU/mm^2 | 5.12 LAU/mm^2 | GvpA fused to NGFP or CGFP (from UniProt P08958 1-76) (natural protein) |
